Assay results as given in US20160185837A1 (Medimmune Limited, priority 2013, published 2016).
Like-named read-outs stand apart in the source and are kept apart here.

Key:
Type in all cases: cell-based
[1] = biological target: T1, human GLP-1 receptor (hGLP-1r) (Homo sapiens, UniProt P43220); assay: BSA-cAMP assay, cells expressing human GLP-1 receptor; conditions: BSA-cAMP assay, read-out: hGLP1r cAMP activity EC50
T1 construct: expressed in transfected cells
Procedure, shortened: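 EC50 came from an unconstrained 4-parameter logistic fit of HTRF cAMP data expressed as percent of maximal native agonist activation, tested on two occasions. Thawed receptor-expressing cells (hGLP-1r, hGIPr at 0.5×10^5 cells/ml) treated 30 min at room temperature in 0.1% BSA-containing medium; two distinct hGIPr lines.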

[2] = biological target: T2, human glucagon receptor (GCGr) (Homo sapiens, UniProt P47871); assay: BSA-cAMP assay, cells expressing human glucagon receptor
T2 construct: expressed in transfected cells; host or cells: HEK293s or CHO cells
T2 sequence (P47871 26-477): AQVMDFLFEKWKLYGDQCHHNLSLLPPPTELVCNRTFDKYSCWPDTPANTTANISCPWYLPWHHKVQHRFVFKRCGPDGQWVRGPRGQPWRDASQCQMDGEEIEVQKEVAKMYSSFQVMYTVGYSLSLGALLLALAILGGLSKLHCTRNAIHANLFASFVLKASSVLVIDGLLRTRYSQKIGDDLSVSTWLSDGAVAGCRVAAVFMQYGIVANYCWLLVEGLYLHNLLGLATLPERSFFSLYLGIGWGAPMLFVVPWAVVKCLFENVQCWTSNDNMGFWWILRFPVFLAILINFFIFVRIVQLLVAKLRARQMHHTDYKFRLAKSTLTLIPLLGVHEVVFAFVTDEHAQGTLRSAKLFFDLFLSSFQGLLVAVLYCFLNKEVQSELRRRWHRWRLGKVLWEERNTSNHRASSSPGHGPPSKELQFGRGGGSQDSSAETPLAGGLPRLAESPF

[3] = biological target: T3, mouse GLP-1 receptor (mGLP-1r) (Mus musculus, UniProt O35659); assay: BSA-cAMP assay, cells expressing mouse GLP-1 receptor; conditions: BSA-cAMP assay, read-out: mGLP1r cAMP activity EC50
T3 construct: expressed in transfected cells; host or cells: HEK293s or CHO cells
T3 sequence (O35659 22-463): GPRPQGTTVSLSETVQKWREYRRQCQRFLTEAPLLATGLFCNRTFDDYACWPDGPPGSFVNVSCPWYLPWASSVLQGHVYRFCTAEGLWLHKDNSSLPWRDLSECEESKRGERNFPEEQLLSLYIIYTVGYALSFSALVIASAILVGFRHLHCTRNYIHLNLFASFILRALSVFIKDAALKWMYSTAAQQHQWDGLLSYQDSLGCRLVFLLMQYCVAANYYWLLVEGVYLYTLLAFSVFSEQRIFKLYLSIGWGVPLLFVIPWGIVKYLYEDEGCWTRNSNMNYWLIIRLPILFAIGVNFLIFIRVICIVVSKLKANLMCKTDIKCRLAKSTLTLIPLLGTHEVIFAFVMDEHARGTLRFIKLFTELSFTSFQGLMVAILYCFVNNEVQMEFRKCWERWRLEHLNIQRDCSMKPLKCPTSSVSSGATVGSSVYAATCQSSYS
Procedure, shortened: (§1)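 EC50 is the midpoint of an unconstrained 4-parameter logistic fit to HTRF cAMP data, expressed as percent of maximal native agonist response, from two separate occasions. Rodent (mouse, rat) GLP-1R- or GIPR-expressing cells were incubated with compound 30 min at room temperature in 0.1% BSA medium, in duplicate.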

[4] = biological target: T4, mouse GIP receptor (mGIPr) (Mus musculus, UniProt Q0P543); assay: BSA-cAMP assay, cells expressing mouse GIP receptor; conditions: BSA-cAMP assay, read-out: mGIPr cAMP activity EC50
T4 construct: expressed in transfected cells; host or cells: HEK293s or CHO cells
T4 sequence (Q0P543 19-460): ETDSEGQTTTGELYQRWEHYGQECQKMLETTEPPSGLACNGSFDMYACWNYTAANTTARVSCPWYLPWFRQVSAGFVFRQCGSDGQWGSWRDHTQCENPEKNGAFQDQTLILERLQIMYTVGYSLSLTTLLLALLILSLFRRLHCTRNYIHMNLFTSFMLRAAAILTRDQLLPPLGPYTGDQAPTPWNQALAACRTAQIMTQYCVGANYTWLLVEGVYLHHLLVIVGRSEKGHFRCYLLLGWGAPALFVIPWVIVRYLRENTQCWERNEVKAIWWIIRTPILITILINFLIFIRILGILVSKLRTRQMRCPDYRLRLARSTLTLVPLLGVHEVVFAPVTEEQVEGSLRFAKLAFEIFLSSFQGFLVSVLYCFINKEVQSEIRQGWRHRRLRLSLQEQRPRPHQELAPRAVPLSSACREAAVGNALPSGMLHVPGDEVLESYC
Procedure, shortened: as §1

rat GIP receptor (rGIPr) = biological target: T5, rat GIP receptor (rGIPr) (Rattus norvegicus, UniProt P43219); assay: BSA-cAMP assay, cells expressing rat GIP receptor; conditions: BSA-cAMP assay, read-out: rGIPr cAMP activity EC50
T5 construct: expressed in transfected cells; host or cells: HEK293s or CHO cells
T5 sequence (P43219 19-455): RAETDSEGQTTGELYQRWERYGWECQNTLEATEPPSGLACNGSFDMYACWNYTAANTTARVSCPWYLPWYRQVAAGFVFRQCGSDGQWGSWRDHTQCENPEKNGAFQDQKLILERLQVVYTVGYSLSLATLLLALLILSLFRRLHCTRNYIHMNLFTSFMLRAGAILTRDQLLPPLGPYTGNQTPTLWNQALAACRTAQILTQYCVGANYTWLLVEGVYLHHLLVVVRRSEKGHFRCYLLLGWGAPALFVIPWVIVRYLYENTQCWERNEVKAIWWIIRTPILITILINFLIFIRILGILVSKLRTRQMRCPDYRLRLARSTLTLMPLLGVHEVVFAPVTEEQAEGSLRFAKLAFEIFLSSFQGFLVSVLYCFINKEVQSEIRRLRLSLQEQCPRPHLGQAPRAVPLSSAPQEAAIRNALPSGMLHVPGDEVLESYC
Procedure, shortened: as §1

[5] = Batch 1, read-out: hGCGr cAMP activity EC50
[6] = Batch 2, read-out: hGCGr cAMP activity EC50

T1 sequence (P43220 24-463): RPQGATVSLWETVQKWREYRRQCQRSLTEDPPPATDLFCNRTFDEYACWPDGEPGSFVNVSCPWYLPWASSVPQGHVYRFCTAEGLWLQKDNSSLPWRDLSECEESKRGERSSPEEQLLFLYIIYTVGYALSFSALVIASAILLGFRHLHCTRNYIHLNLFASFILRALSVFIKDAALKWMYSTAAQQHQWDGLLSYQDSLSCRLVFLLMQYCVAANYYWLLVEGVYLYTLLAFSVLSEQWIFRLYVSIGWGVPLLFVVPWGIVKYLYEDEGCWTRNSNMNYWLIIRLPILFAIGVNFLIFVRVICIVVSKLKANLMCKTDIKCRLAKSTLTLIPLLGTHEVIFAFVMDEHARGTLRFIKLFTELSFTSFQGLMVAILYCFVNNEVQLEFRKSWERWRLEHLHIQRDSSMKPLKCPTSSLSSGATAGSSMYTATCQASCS

| EC50 ([1]; Batch 1) [nM] | EC50 ([1]; Batch 2) [nM] | EC50 [2, 5] [nM] | EC50 [2, 6] [nM] | EC50 ([3]; Batch 1) [nM] | EC50 ([3]; Batch 2) [nM] | EC50 ([4]; Batch 1) [nM] | EC50 ([4]; Batch 2) [nM] | EC50 (rat GIP receptor (rGIPr); Batch 1) [nM] | EC50 (rat GIP receptor (rGIPr); Batch 2) [nM] | Substance |
| --- | --- | --- | --- | --- | --- | --- | --- | --- | --- | --- |
| 0.11 | 0.11 | 330 | 250 | 1.2 | 2.5 | 0.28 | 0.78 | 0.19 | 0.014 | IP396 (YSEGTFTSDYSKLLERQAIDEFIAWLLKGGGGGGGSGGGGSGGGGSGGGGSACPPC) |
| 0.073 | – | > 440 | – | 1.2 | – | 0.4 | – | 0.018 | – | IP412: Fc fusion, IgG1-TM, SEQ ID NO:387; agonist peptide YSEGTFTSDYSKLLEEEANRLFIEWLLAGG (YSEGTFTSDYSKLLEEEANRLFIEWLLAGGGGGGSGGGGSGGGGSGGGGSATHTCPPC) |
| 160 | 260 | 3800 | 3800 | 2500 | – | > 3930 | – | 130 | – | IP320 (YSEGTFTSDYAAAAEAAAAAAFAAWLAAAAGGGGGSGGGGSGGGGSGGGGSACPPC) |
